Laboratory results reported in the DeepSol protein solubility set.

assay: soluble on expression in E. coli; label from the status in PepcDB or PDB records

Question: With “MGSDKIHHHHHHMKILITGANGQLGREIQKQLKGKNVEVIPTDVQDLDITNVLAVNKFFNEKKPNVVINCAAHTAVDKCEEQYDLAYKINAIGPKNLAAAAYSVGAEIVQISTDYVFDGEAKEPITEFDEVNPQSAYGKTKLEGENFVKALNPKYYIVRTAWLYGDGNNFVKTMINLGKTHDELKVVHDQVGTPTSTVDLARVVLKVIDEKNYGTFHCTCKGICSWYDFAVEIFRLTGIDVKVTPCTTEEFPRPAKRPKYSVLRNYMLELTTGDITREWKESLKEYIDLLQM” as the sequence, how does the “soluble on expression in E. coli” value read?
Answer: soluble

Question: With “MGSDKIHHHHHHMKIQQPSVLIPDPCNNPLAYYAIRCLKQANSEFNINVIVSSGQTLDDNEWLYFYKYSAYIDNLVVSANSMNSLEYLDEVIRIIENQGINLIFPASEEGFKFVSKYRYKLSKFCRIVALPSEENLDAAFDKWKLHLLLQKHNIPTPETVLLKEIENISQFNYPVILKPVDGSGGKNIQKFDSLEEENFQAICNYPNDVYIVQKYVPGHDIGCSVLCQDGQVLAYTIQQQLGLTEGFTPKIDKLKFVHDSAVIDIVTKTMNVLKWSGIANLDLRYNSQTGQINVIEINPRFWQSLMGSLSVGVNFPYILYLLSNNISFERISYKEQYYAKFHRFIQDAFNGSLEYSLSDTNVKYFLSDPSGILHFLFYKLMKQKLFQNMKSIFSLQSQKIQNVK” as the sequence, how does the “soluble on expression in E. coli” value read?
Answer: not soluble

Question: Which “soluble on expression in E. coli” value does the source give for “MGSDKIHHHHHHMKITFPNLGNTLYAAKALFDNLEIEYVLPPNSSKKCLEIGSLYSPEDICLPFKIMIGAYIDSIERGADTILITGSCGPCRFGEYCELQINLLKKLGHDVDFIVLDRPSSIGKTEFLNRLSKISGSSSISSYKKLKAVYSAYKIINLIDYIEKTARYKAGFELKKGECKKILQTCKKSALTCNNAESMIDLLTKYKHMINHVPIDSTKTPLKVSIIGEIYTILEPFSNLYIENKLMDLGISTQKNITPSWWFKDAMLSNLNLNSINLRMNSKKYLPYYIGGHGRECVGEAVMASNSGFDGAIQLFPMGCMPEIVSKSILPTISRDKDFPILSLIIDEMTGDAGYMTRIEAFIDLLERRKNRCII” here?
Answer: not soluble

Question: Which “soluble on expression in E. coli” value does the source give for “MGSDKIHHHHHHMKIVVTKFGGSSLADSNQFKKVKGIIDSDANRKYIIPSAPGKRTNKDYKITDLLYLCNAHVKNGIPFDDVFKLISQRYTEIVSELNIDMDIAYYLEKVKKNIENGASSDYAASRGEYLNGVILAKYLNAEFIDAAEVIFFDKSGCFDEKKSYEKIKEKVLSCNKAVIPGFYGSSFNGDVKTFSRGGSDVTGSIISAGVNADLYENWTDVSGFLMADPRIVENPKTISKISYKELRELSYMGATVLHEEAIFPVKDSGIPINIKNTNKPSDPGTLILSDTHKEINLGTITGIAGKKNFTVIAIEKALLNSEVGFCRKILSILEMYGVSFEHMPSGVDSVSLVIEDCKLDGKCDKIIEEIKKQCNPDSIEIHPNMALVATVGTGMAKTKGIANKIFTALSKENVNIRMIDQGSSEINVIVGVETVDFEKAVKSIYNAFN” here?
Answer: not soluble

Question: Which “soluble on expression in E. coli” value does the source give for “MGSDKIHHHHHHMKIYIMKQQMRQAKRVNYLDEHLNCLFYNGNPEIGFRHLTLQKGKTWCELSAKNNYFFFLLEGALIVDFNECVGYEVGKGEMIYLPRSADFKIFAKESADLIILSYGIPVQLCDKLSLSQLGAFITDFKYEFKSLDIRVPLDTFLKLLVKYLDSGMSCQHMHELKQKELFLILRAYYTKEEKVNFFYHSIAASLTFKDKVMGVYLEARTVQELADKCGYGLKTFQRLFYSCFSEVPSKWLMKQKAQHVKARLLDRDIPIKVILDEFGFSTYANFCNYCKRYVGDTPRNIRESVTLGFRK” here?
Answer: not soluble

Question: Which “soluble on expression in E. coli” value does the source give for “MGSDKIHHHHHHMKIYVDGREVIINDNERNLLEALKNVGIEIPNLCYLSEASIYGACRMCLVEINGQITTSCTLKPYEGMKVKTNTPEIYEMRRNILELILATHNRDCTTCDRNGSCKLQKYAEDFGIRKIRFEALKKEHVRDESAPVVRDTSKCILCGDCVRVCEEIQGVGVIEFAKRGFESVVTTAFDTPLIETECVLCGQCVAYCPTGALSIRNDIDKLIEALESDKIVIGMIAPAVRAAIQEEFGIDEDVAMAEKLVSFLKTIGFDKVFDVSFGADLVAYEEAHEFYERLKKGERLPQFTSCCPAWVKHAEHTYPQYLQNLSSVKSPQQALGTVIKKIYARKLGVPEEKIFLVSFMPCTAKKFEAEREEHEGIVDIVLTTRELAQLIKMSRIDINRVEPQPFDRPYGVSSQAGLGFGKAGGVFSCVLSVLNEEIGIEKVDVKSPEDGIRVAEVTLKDGTSFKGAVIYGLGKVKKFLEERKDVEIIEVMACNYGCVGGGGQPYPNDSRIREHRAKVLRDTMGIKSLLTPVENLFLMKLYEEDLKDEHTRHEILHTTYRPRRRYPEKDVEILPVPNGEKRTVKVCLGTSCYTKGSYEILKKLVDYVKENDMEGKIEVLGTFCVENCGASPNVIVDDKIIGGATFEKVLEELSKNG” here?
Answer: not soluble

Question: With “MGSDKIHHHHHHMKKATDKNPTTTSKPNTITPLFTTNYNVYINHTDAGGIVYHANHLVFFENCRRDWFTQLGLNGYFLESNDGQIQHFVVTQADLQYKHAILLDEVINVRIDNVEIKPASIVFYQSIYRQQSQDNTANNAKAVLLSSTKIVVACVQNQITPDSIDNNASNNTAPMRPVRVPQKLRDAIERAIAEHIVEIL” as the sequence, how does the “soluble on expression in E. coli” value read?
Answer: not soluble

Question: With “MGSDKIHHHHHHMKKGLVMEGGAMRGLYTAGVTDVLMKYGIKFDGAVGVSAGVTFGCNYKSLQPGRVLRYNLRYGSRPQFKSWRSWIKTGDLYGADFCYYTLPEVLDPFDTAAFARNPMDFWCVATDVETAQPAYHKLTTGKGRDVAWIRASASIPVFARPVKIGGHAYWDGGVSDSIPVRFLLDKDYDKAVVILTQPAGYQKEPSRLQPVIDRVLKKYPAVVARLRQRHLEYNACLAYIAKEEAAGHLFVFRPSQGIDVSAMEKDPNRLKAVYQVGVRGCQAAIGGLEGIFTRLSTKNGD” as the sequence, how does the “soluble on expression in E. coli” value read?
Answer: not soluble

Question: With “MGSDKIHHHHHHMKKIFKSIANSANCLADVLFPPHCLVCDSGLVLGETDVCSTCLSTLPTVNDDYSPDSLYLRLSIELRPSFVWAYLLFDSKNKTQKILHAIKYGDAPDIAVRLAMIWTDRIRESLVEADVDLIMPIPLHKSKLRKRGYNQATKIAEGIQKIVPIPIEESVLIRKRNLFIQAKSKRAKRFENVKQVYAIQHIEKVAGKHILLVDDVLTTGATLEACGLLLKNAGAAKVSVALLAMVAD” as the sequence, how does the “soluble on expression in E. coli” value read?
Answer: not soluble

Question: Which “soluble on expression in E. coli” value does the source give for “MGSDKIHHHHHHMKKLALISLDGNGIYNLKYMPFLSELAEKGDIFTVDSIFPTLTDLVHTTVMTGVEPRHHWVVENGYYDRLSGVRVKFYEYDVAFNPHKVIKAPLIQDILRQRGVRIASVSGYTMPPFSNVDVRIFPPFFSSDELYRRHGRDWKKDVWVLNSALYLYEECKPDLLLVHFASIDGMQHDHGPESREALKAVETVDSAIRALWERLKDEYAFIIFADHGQEEVHTWVNLREYLRNKGIETLRVSSGGGVHVYLKDPREREDAYEVLRRAPGVKAVFLREDLPYLNAPVSGDLIVSAKEGFWFCHHRECKGIKGKSYWVRGMHGSLNERVVKVPLVLWNLEAKKEEATLYDIAPTILKFFGVEKRVEMIGKSLI” here?
Answer: not soluble

Question: Which “soluble on expression in E. coli” value does the source give for “MGSDKIHHHHHHMKKVLVAGATGYLGRYAVQEFKNRGYWVRALVRNPEKFKKPGPFFAPEIDTLVDDVVFGDATKPETIAGLCDGIDVVFSSLGMIKPDFEHDNFDVDYQGNMNILAEALKAGVKKFVYVSVFDAHRMMNIPNVQAHEKFVRELQAAKIESTIIRPNGFFSEIGQFVARARRGFMLWIGDGYNRQNPIHGADLAKVCADAVDSSEKEIEVGGPEVFTYREMVDLAIEIAGTQPVQVSLPFWLADGIVGVLGLFNRDVHDVALFATTLSKMDFVSPKYGTHRLRDFFNECKLLPL” here?
Answer: not soluble

Question: Which “soluble on expression in E. coli” value does the source give for “MGSDKIHHHHHHMKKYVIVTGGVLSGIGKGIFSASLARLMKEHGVDVNVLKIDPYLNVDAGTMNPNQHGEVFVTEDGYEADLDLGHYERFLGRDMTRQNNMTAGQVYLRVIEKERQGKYLGNTVQIVPHLTEEIKDRIRALEAELLVVEIGGTVGDIEGEVFLEAVRELQMEEGKENFLFAHVTYVPYLRTTNEFKTKPTQQSVQLLRRIGITPDMVIVRSEFPLDVPSMNKVALFSGVPRDFVINLPDTKNVYEVPEILRDMGLHEKIASKLNVELKKSTFNWSYPKAFKPYRIALVGKYLGTDDAYKSIIESVFLTGIEKPTVVDSQMLEDMNDEEVKKVLDEYDALIIPGGFGRRGVEGKIKAIKYARENKKPILGICLGMQLMVIEFARNVFGYKEANSTEFDPNTPYPVVDLMEEQKRILKLGGTMRLGAQKVKIFPKTKLYEVYGGVEEVYERHRHRYEANEEAFPELFKKPGEEGYKLVVSAKSDFIEAVELEDHPFFVGVQFHPEYKSKVGAPHPIFVYLRKVLEGSQ” here?
Answer: not soluble

Question: With “MGSDKIHHHHHHMKLETIDYRSPDAAAQFVQSLRDTGFGVLSNHPIQQSLVEAIYKDWYEFFQSGAKEEFRFNPETQDGFFPADVSETAKGHSVKDIKEYYHVYPWGRIPESLRANILAYYDHANQLAAELLSWVEAHSPDEVKALFTEPLPNMIDGSHKTLLRVLHYPPMKGDEEPGAIRAAAHEDINLLTVLPAANEPGLQVKAKDGTWLDVPSDFGNIIINIGDMLQEASGGYFPSTSHRVINPEGMDKTKSRISLPLFLHPRPDVVLSERYTADSYLMERLRELGVI” as the sequence, how does the “soluble on expression in E. coli” value read?
Answer: not soluble

Question: Which “soluble on expression in E. coli” value does the source give for “MGSDKIHHHHHHMKLGVFTVLYGNLSFTEMLDKVKGAGVQAVEIGTGGYPGDAHCPRQELLTSAEKRKRYQEELEQRGLLLGSFSCHGNPLSPDEAFRKESDQALRETIELAGKMNVPVVNCFSGTAGDHEGAKYPNWPVAPWPNEYRHILEWQWEEKLIPYWKEIGEWAETHGVKVALELHGGFLVHTPYTLLTLRKATSPAIGANLDPSHLWWQGIDPVAAIKILGREGAIHHFHAKDTFIDQEQVNMYGLTDMQPYTHIQTRAWNFRSVGCGHDLHEWTQMISALRTYGYDHVISIEHEDPLMSIDEGFETAVRNLKPLLIKEKPTEMWWA” here?
Answer: not soluble

Question: With “MGSDKIHHHHHHMKLIATDMDGTLLNDERKISKENAEAIKAAQQDGIHVVVATGRDFKEASMPLKEAGLTCPILCVNGAEERSANGELIHAVSLAKNEALTILDILTAADVYFEVYTNRGAFTDDYEKGLEIVIDVLQSAGSDDSYEKMREIAKHRFESGAVQLTEDYTKLIDSTAVYKFLAFSRDETKRQAAKDDLEKKDVFSVSASASDNLEITHWQAQKGIALRRLAERLGINSDDVMAIGDNLNDVSMLKYAGTAVAMENGEAEVKQLADFVTASNEDNGVAKAINKWLK” as the sequence, how does the “soluble on expression in E. coli” value read?
Answer: not soluble

Question: For “MGSDKIHHHHHHMKLNRIPVVFILVLQFLSCMRKDEVLSTDPSDRLEFSEDTVFFDTLFSSVGSITKRLLVYNPGKNKIRISSVTLAGGSNSAYSVIVNGLNGPSISDIDIRGNDSIYVLVKVLIDPSNQDLPFLVSDSILFYTNTNRQKVLLSAYGQDAHFFGKESIACDAVWVNDKPYVLYDTLQVNTGCTLTIQPGCKIYFHTAAALNVRGTLIAQGSSSEPLLFASDKLSKTAQDDRGQWGGLIFQSSSSGNVISWATIRNSSTAIKLFPVIDADTIAELSLDHTFLLHASVRLIDAQEVDLAGSNLVLSDCPKALLKHTAGCGVWKHCTFANYSSGFFREETNLVLGSNMGSLKMYVLNSILWGDKSNEVTANNTPSLSLQSCIWRSAYMGTNTNVITSNPLFSKPSAFDFSLTAGSSAIDLCTGVGVPDDIAAGNRDSTPDAGAYEFK”, which “soluble on expression in E. coli” value is on record?
Answer: not soluble

Question: With “MGSDKIHHHHHHMKLPPLQIGDLKADIPIIQGGMGVGISRSSLASAVANCGGVGTISGVQIGFDEPDFETNTFNANIRALNKHIKKAKQESKRGIIAVNFMVAMNDYDKYVKSAVDAGADLIVSGAGLPTALPKIVEGSKVKIAPIVSSPKAASVICKMWDKHHGRIPDLIVVEGPEAGGHLGFKAEQVKGSHEELSDILTGVLTAIKPFEEKHGVKIPVVCGGGVFYGKDIAKYIKLGASGVQMATRFIATEECDANLNYKNVYVNCKEDDIKIVKSPVGMPGRAISNKFVQSNDKNITITKCYNCLKPCNPKDTPYCISKALINAVNGNVDEALLFTGAKSYKIDKIVKVKELINELISDAECEF” as the sequence, how does the “soluble on expression in E. coli” value read?
Answer: not soluble
